Laboratory results from article PMC3976097.

How the values were obtained:
[1] = target: Recombinant human IFN-α/β R2-Fc chimera (human) (UniProt P48551)
[2] = target: Recombinant human IFN-α/β R2-Fc chimera (human) (UniProt P48551); experiment: SPR; BIAcore T-100; human IFNR2-Fc captured on a CM5 chip by an immobilized anti-human IgG Fc antibody; Nova or IFN-α2b in the solution phase; binding measured under equilibrium conditions

Chain of UniProt P48551 (P48551 27-243, change not shown): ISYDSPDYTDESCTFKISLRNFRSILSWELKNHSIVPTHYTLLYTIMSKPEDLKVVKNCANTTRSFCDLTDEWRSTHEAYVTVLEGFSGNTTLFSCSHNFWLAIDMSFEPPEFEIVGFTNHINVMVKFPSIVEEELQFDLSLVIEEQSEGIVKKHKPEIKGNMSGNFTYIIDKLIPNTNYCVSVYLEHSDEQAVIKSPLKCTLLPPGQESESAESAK

Substance: Novaferon (ligand)
- anti-tumor activity against Daudi cell lines (MTT anti-proliferative assay) [1]: 2.74e+10 U/mg
- anti-virus activity, WISH/VSV system (cytopathic effect reduction assay) [1]: 1.34e+09
- Kd [2]: 0.0123 nM
